Data published in patent EP4703390A1 (Chia Tai Tianqing Pharmaceutical Group Co., Ltd., dated 2026).
Residue numbers refer to the chain shown, from its start.

B1: anti-EGFR/anti-c-Met multispecific antibody V42 (bispecific antibody, human IgG1, kappa)
chain: QVQLLESGGGSVQAGGSLRLSCAASGHTYSSGCMGWFRQAPGKGREGVATIYTRNDFTYYSDTVKGRFTISRDNSKNTVYLQMNSLRAEDTAVYYCAAGSPFRYAGAWNVCGLKEEDYNYWGQGTLVTVSSGGGGSGGGGSQVQLVESGGGSVQPGGSLRLSCAASGYSYSANCVGWFRQAPGKGREGVSAINTGGETATYADFVKGRFTISRDNAKNTVYLQMNSLRAEDTAVYYCAAVGTRKYWDECSLSQHAYKNWGQGTLVTVSSGEPKSSDKTHTCPPCPAPELLGGPSVFLFPPKPKDTLMISRTPEVTCVVVDVSHEDPEVKFNWYVDGVEVHNAKTKPREEQYNSTYRVVSVLTVLHQDWLNGKEYKCKVSNKALPAPIEKTISKAKGQPREPQVCTLPPSREEMTKNQVSLSCAVKGFYPSDIAVEWESNGQPENNYKTTPPVLDSDGSFFLVSKLTVDKSRWQQGNVFSCSVMHEALHNRFTQKSLSLSPGK
heavy: not shown
light: not shown
notes: Three chains, trivalent: 1B-1B6-V3 VHH - 1B-1C7-V1 VHH - Fc plus anti-EGFR Fab arm; knob-into-hole Fc; expressed in FUT8-/- CHO-S cells
B2: amivantamab (bispecific antibody)
chain 1: not shown
chain 2: not shown
chain 3: not shown
chain 4: DIQMTQSPSSVSASVGDRVTITCRASQGISNWLAWFQHKPGKAPKLLIYAASSLLSGVPSRFSGSGSGTDFTLTISSLQPEDFATYYCQQANSFPITFGQGTRLEIKRTVAAPSVFIFPPSDEQLKSGTASVVCLLNNFYPREAKVQWKVDNALQSGNSQESVTEQDSKDSTYSLSSTLTLSKADYEKHKVYACEVTHQGLSSPVTKSFNRGEC
B3: anti-EGFR/anti-c-Met multispecific antibody V73 (bispecific antibody, human IgG1, kappa)
chain: EVQLVESGGGSVQAGGSLRLSCAVSGFTVSSNFMAWFRQAPGKGREWVSTITTGAGNTAYADSVKGRFTISEDNSKNTLYLQMNSLRAEDTAVYYCAAGRGGFWRPAEYDFWGQGTTVTVSSGGGGSQVQLVESGGGSVQPGGSLRLSCAASGYSYSANCVGWFRQAPGKGREGVSAINTGGETATYADFVKGRFTISRDNAKNTVYLQMNSLRAEDTAVYYCAAVGTRKYWDECSLSQHAYKNWGQGTLVTVSSGEPKSSDKTHTCPPCPAPELLGGPSVFLFPPKPKDTLMISRTPEVTCVVVDVSHEDPEVKFNWYVDGVEVHNAKTKPREEQYNSTYRVVSVLTVLHQDWLNGKEYKCKVSNKALPAPIEKTISKAKGQPREPQVCTLPPSREEMTKNQVSLSCAVKGFYPSDIAVEWESNGQPENNYKTTPPVLDSDGSFFLVSKLTVDKSRWQQGNVFSCSVMHEALHNRYTQKSLSLSPGK
heavy: not shown
light: not shown
notes: knob-into-hole Fc; expressed in FUT8-/- CHO-S cells
B4: anti-EGFR/anti-c-Met multispecific antibody V35 (bispecific antibody, human IgG1, kappa)
chain: B1 chain with T63S
heavy: not shown
light: not shown
notes: Three chains, trivalent: 1B-1B6-V2 VHH - 1B-1C7-V1 VHH - Fc plus anti-EGFR Fab arm; knob-into-hole Fc; expressed in FUT8-/- CHO-S cells
B5: anti-EGFR/anti-c-Met multispecific antibody V41 (bispecific antibody, human IgG1, kappa)
chain: B1 chain with H27F, Y29F, T63S
heavy: not shown
light: not shown
notes: Three chains, trivalent: 1B-1B6-V1 VHH - 1B-1C7-V1 VHH - Fc plus anti-EGFR Fab arm; knob-into-hole Fc; expressed in FUT8-/- CHO-S cells
B6: anti-EGFR/anti-c-Met multispecific antibody V12 (bispecific antibody, human IgG1, kappa)
chain: QVQLVESGGDSVQAGGSLRLSCAASAHAYSSGCMGWFRQAPGKGREGVATIYTRNDFTYYSDSVKGRFTISRDDAKNTVYLQVNSLKAEDTAMYYCAAGSPFRYAGAWNVCGLKEEDYNYWGQGTLVTVSSGGGGSGGGGSQVQLVESGGGLVQPGGSLRLSCAASGYSYSANCVGWFYQAPGKEREGVAAINTGGETATYADFVKGRFTISQDYAKNTVYLQMNSLKSEDTGMYYCAAVGTRKYWDECSLSQHAYKNWGQGTLVTVSSGEPKSSDKTHTCPPCPAPELLGGPSVFLFPPKPKDTLMISRTPEVTCVVVDVSHEDPEVKFNWYVDGVEVHNAKTKPREEQYNSTYRVVSVLTVLHQDWLNGKEYKCKVSNKALPAPIEKTISKAKGQPREPQVCTLPPSREEMTKNQVSLSCAVKGFYPSDIAVEWESNGQPENNYKTTPPVLDSDGSFFLVSKLTVDKSRWQQGNVFSCSVMHEALHNRFTQKSLSLSPGK
heavy: not shown
light: not shown
notes: Three chains, trivalent: 1B-1B6 VHH - 1B-1C7 VHH - Fc plus anti-EGFR Fab arm; knob-into-hole Fc; expressed in FUT8-/- CHO-S cells
B7: anti-EGFR/anti-c-Met multispecific antibody V74 (bispecific antibody, human IgG1, kappa)
chain: B3 chain with L79A
heavy: not shown
light: not shown
notes: as for B3
B8: anti-EGFR/anti-c-Met multispecific antibody V67 (bispecific antibody, human IgG1, kappa)
chain: EVQLVESGGGSVQAQGSLRLSCTVSGSTYSSNFMAWFRQAPGKEREWVATITTGAGNTAYADSVKGRFTISEDNAKRTAYLQMNSLKPEDTAVYYCAAGRGGFWRPAEYDFWGQGTQVTVSSGGGGSQVQLVESGGGSVQPGGSLRLSCAASGYSYSANCVGWFRQAPGKGREGVSAINTGGETATYADFVKGRFTISRDNAKNTVYLQMNSLRAEDTAVYYCAAVGTRKYWDECSLSQHAYKNWGQGTLVTVSSGEPKSSDKTHTCPPCPAPELLGGPSVFLFPPKPKDTLMISRTPEVTCVVVDVSHEDPEVKFNWYVDGVEVHNAKTKPREEQYNSTYRVVSVLTVLHQDWLNGKEYKCKVSNKALPAPIEKTISKAKGQPREPQVCTLPPSREEMTKNQVSLSCAVKGFYPSDIAVEWESNGQPENNYKTTPPVLDSDGSFFLVSKLTVDKSRWQQGNVFSCSVMHEALHNRYTQKSLSLSPGK
heavy: not shown
light: not shown
notes: as for B3

biological target: T1, EGFR and c-Met on the surface of tumor cells (human, UniProt P00533 25-1210; P08581 25-1390); test: flow cytometry, NCI-H1993 cells (medium EGFR, high c-Met)
T1 construct: whole, on cells; Not a complex: two separate receptors on the same cells, both targets of the multispecific antibodies; the read-outs cannot be split between them; also called cells expressing EGFR and c-Met (A431, NCI-H1975, NCI-H1993, NCI-H292, KP4, NCI-H441)

Row | Binder | EC50 [nM]
1 | B1 | 1.03
2 | B2 | 0.596
3 | B3 | 1.02

biological target: T1, EGFR and c-Met on the surface of tumor …; test: cell-based or functional assay

Row | Binder | ADCC lysis EC50, KP4 cells, human PBMC effectors [nM] | ADCC lysis EC50, NCI-H292 cells, human PBMC effectors [nM]
4 | B1 | 0.0117 | 0.0135
5 | B2 | 0.0171 | 0.021
6 | B3 | 0.027 | 0.0181

biological target: T2, Human c-Met-His (SinoBiological, Cat. No. 10692-H08H) (human, UniProt P08581 25-932); test: SPR (Biacore), antibody captured on anti-hIgG Fc chip, human c-Met-His as analyte
T2 construct: Bought protein; also called c-Met-His protein; human c-Met protein; not shown: His tag
T2 sequence (P08581 25-932 limits assumed): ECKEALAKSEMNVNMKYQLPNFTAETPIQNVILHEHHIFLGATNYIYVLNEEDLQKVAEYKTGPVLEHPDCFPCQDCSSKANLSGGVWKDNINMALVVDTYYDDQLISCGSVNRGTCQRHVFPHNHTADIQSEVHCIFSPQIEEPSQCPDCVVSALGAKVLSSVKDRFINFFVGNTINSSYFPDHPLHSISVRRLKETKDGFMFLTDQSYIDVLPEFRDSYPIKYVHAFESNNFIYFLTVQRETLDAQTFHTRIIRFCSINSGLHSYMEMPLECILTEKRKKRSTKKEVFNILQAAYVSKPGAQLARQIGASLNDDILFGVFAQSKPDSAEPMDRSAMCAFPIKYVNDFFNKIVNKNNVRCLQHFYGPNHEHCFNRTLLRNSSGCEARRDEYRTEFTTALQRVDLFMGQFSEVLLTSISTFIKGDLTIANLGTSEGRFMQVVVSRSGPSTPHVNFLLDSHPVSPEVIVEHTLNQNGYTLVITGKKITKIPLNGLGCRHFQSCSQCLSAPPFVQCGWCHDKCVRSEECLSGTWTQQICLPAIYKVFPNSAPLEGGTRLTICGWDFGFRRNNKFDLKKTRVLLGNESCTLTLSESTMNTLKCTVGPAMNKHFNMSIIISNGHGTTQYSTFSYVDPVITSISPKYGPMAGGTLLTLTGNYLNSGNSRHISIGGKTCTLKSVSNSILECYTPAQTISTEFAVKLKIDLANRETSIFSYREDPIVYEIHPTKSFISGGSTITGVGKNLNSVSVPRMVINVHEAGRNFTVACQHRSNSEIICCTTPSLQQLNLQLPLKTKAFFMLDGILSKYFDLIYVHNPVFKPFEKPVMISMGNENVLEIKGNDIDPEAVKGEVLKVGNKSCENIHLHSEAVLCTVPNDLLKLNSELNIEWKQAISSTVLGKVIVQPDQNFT

Row | Binder | Kd [nM] | koff [s⁻¹] | kon [M⁻¹ s⁻¹]
7 | B4 | 0.318 | 3.34e-05 | 105000
8 | B1 | 0.438 | 4.39e-05 | 100000
9 | B5 | 0.368 | 3.57e-05 | 97000
10 | B6 | 0.325 | 4.62e-05 | 142000
11 | B7 | 0.548 | 0.000128 | 234000
12 | B3 | 0.458 | 9.03e-05 | 197000
13 | B8 | 0.276 | 7.01e-05 | 254000

biological target: T1, EGFR and c-Met on the surface of tumor …; test: cell-based or functional assay; remark: another data set of the same source

Row | Binder | endocytic activity EC50, A431 cells (flow cytometry, internalization reagent) [nM] | endocytic activity EC50, NCI-H441 cells (flow cytometry, internalization reagent) [nM] | endocytic activity EC50, NCI-H1975 cells (flow cytometry, internalization reagent) [nM]
14 | B1 | 10.5 | 11.8 | 9.66
15 | B2 | 15.1 | 35.6 | 15.2
16 | B3 | 8.33 | 16.7 | 12.4

biological target: T1, EGFR and c-Met on the surface of tumor …; test: cell-based or functional assay; remark: another data set of the same source

Row | Binder | IC50 for inhibiting proliferation of KP4 cells (CCK8) [nM] | IC50 for inhibiting proliferation of NCI-H292 cells (CCK8, with 1 ng/mL HGF) [nM]
17 | B1 | 13.1 | 13.7
18 | B2 | 29 | 45.8
19 | B3 | 7.99 | 5.36

biological target: T1, EGFR and c-Met on the surface of tumor …; test: flow cytometry, NCI-H1975 cells (medium EGFR, low to medium c-Met)

Row | Binder | EC50 [nM]
20 | B1 | 0.755
21 | B2 | 0.378
22 | B3 | 0.794

biological target: T1, EGFR and c-Met on the surface of tumor …; test: flow cytometry, A431 cells (high EGFR, low c-Met)

Row | Binder | EC50 [nM]
23 | B1 | 1.85
24 | B2 | 1.62
25 | B3 | 1.91
